This note sets out measurements from US20210371505A1.

Common to all, as to experiment: cell-based or functional assay
The target in assay [1] is Hemagglutinin of influenza virus A/Aichi/02/1968-PR8-X31 (H3N2) (Influenza A virus A/Aichi/02/1968-PR8-X31 (H3N2)) (UniProt P03437).
Assay [2] concerns the target Hemagglutinin of influenza virus A/Shanghai/01/2013-PR8 (H7N9) (Influenza A virus A/Shanghai/01/2013-PR8 (H7N9)).
In assay [3] the target is Hemagglutinin of influenza virus A/Philippines/01/1982 (H3N2) (Influenza A virus A/Philippines/01/1982 (H3N2)).

Take “Irrelevant/negative hIgG1 control (antibody)”: the figures for the IC50 of neutralization, cell viability microneutralization assay on MDCK cells in assay [1], in assay [2] and in assay [3] were greater than 833 nM, greater than 6.67 µM and greater than 3.33 µM, respectively.
